Experimental data reported in US20240360224A1 (ORIONIS BIOSCIENCES, published 2024).
Positions count from the first letter of the chain named.

B1: 3LEC 11 (VHH)
VHH: QVQLQESGGGLVQPGGSLRLSCAASGSISSINAMGWYRQAPGKQRELVAAITGQGRTTYADSVKGRFTISRDGAKNTVYLQMNSLKPEDTAVYYCKVFAADGMEYWGKGTQVTVSS
notes: Entry includes C-terminal AAA-HA-His6 (pMECS)
B2: 1LEC 92 (VHH)
VHH: B1 VHH with K43N, G53N, T57V, D101S
notes: as for B1
B3: 3LEC 69 (VHH)
VHH: QVQLQESGGGLVQPGGSPRLSCAASGRFFRVNAMGWYRQAPGKQRELVAAITNGGQTAYADSVKGRFTISRDSAKNTVYLQMNSLKSEDTAVYYCKVFAADGMEYWGKGTQVTVSS
notes: as for B1
B4: 1LEC 62 (VHH)
VHH: QVQLQESGGGLVQPGGFLSLSCAASGSMHSVNSMAWYRQVPGKQRELVAAITSGGRLAYAPSVNGRFTISRDYAKNTIHLQMNSLEPEDTAVYYCAALNSATTYWGQGTQVTVSS
notes: as for B1
B5: 1LEC 84 (VHH)
VHH: QVQLQESGGGLVQPGGSLRLSCAASGSIFSIAAMGWYRQAPGKQRELVAAITSGGRRAYADSVKGRFTISRDNDENTVALQMNSLKPEDTDVYYCNAKADHNDYWGQGTQITVSS
notes: as for B1
B6: 2LEC 23 (VHH)
VHH: QVQLQESGGGLVQPGGSLRLSCAASGTSFSINGMAWYRQAPGGQRELVGGITSDGSTGYADSVKGRFTVSRDNAKNTVYLQMNRLKPEDTAVYYCGTSTPRGDSYWGQGTQVTVSS
notes: as for B1
B7: 2LEC 48 (VHH)
VHH: B6 VHH with P14A, S28L, G43K, Q44R, V69I, V78A, R84S
notes: as for B1
B8: 1LEC 91 (VHH)
VHH: QVQLQESGGGLVQPGGSLRLSCAASGFTFDDYAIGWFRQAPGKEHEGVSCISRSDGSTYYDDSVKGRFTISSDNAKNTVYLQMNSLKPEDTAVYYCAAEVPSTYSCSGFREDYKGKGTQVTVSS
notes: as for B1
B9: 2LEC 13 (VHH)
VHH: QVQLQESGGGLVQAGASLRLSCAASGSIFSINAMGWYRQAPGKQRELVAAITNQGRTTYADSVKGRFTISRDNAKNTVYLQMDSLEPEDTAIYYCKGFSPTGDYWGQGTQVTVSS
notes: as for B1
B10: 2LEC 93 (VHH)
VHH: QVQLQESGGGLVQAGGSLRLSCAASGSIFSINAMGWYRPALGEQRELVAAITTGGRTTYVDSVKGRFSISRDNAKNTVYLQMNSLKPEDTAVYFCKAFTRDEDFWGQGTQVTVSS
notes: as for B1
B11: 1LEC 63 (VHH)
VHH: QVQLQESGGGLVQAGGSLRLSCAATGDISSINAMGWHRPARGNERELVAAITNGGRTTYVDSVKGRFTISRDNAKNTVYLQMNSLKPEDTAVYFCKAYTRDEDYWGQGTQVTVSS
notes: as for B1
B12: 1LEC 30 (VHH)
VHH: B10 VHH with F29L, A33S, E43N, T53N, G54D, S68T, F94W, E102K, F104Y
notes: as for B1
B13: 2LEC 53 (VHH)
VHH: B10 VHH with F29D, T58A, S68T, N73A, F94S, E102T, F104Y
notes: as for B1
B14: 1LEC 70 (VHH)
VHH: QVQLQESGGGLVQPGGSLRLSCAASGSIFSINAMGWYRQAPGKQRELVAAITNQGRLTYADSVKGRFTISRDNAKNTVFLQMDSLKPEDTAVYYCNAKWYDPLVIEYYDNWGQGTQVTVSS
notes: as for B1
B15: 2LEC 60 (VHH)
VHH: QVQLQESGGGLVQPGGSLRLSCAASGRFFRVNAMGWYRQVPGKQRELVAAITNGGQIAYADSVKGRFTISRDSAKNTVYLQMNSLKSEDTDVYYCNAKAAATHLSTVADYWGQGTQVTVSS
notes: as for B1
B16: 1LEC 7 (VHH)
VHH: QVQLQESGGGLVQPGGSLRLSCAASGRISSINSMGWYRQAPGNQRELVAAITNGGAKTYADSVKGRFTISTDNAGNTVYLQMDSLRPEDTAVYYCKAFTRRDDYWGQGTQITVSS
notes: as for B1
B17: 1LEC 42 (VHH)
VHH: QVQLQESGGGLVQPGGSLRLSCAASGRVFSINAMGWYRQAPGKQRELVAAITNQGATTYADSVKGRFTISRDTAGNTVYLQMNSLRPEDTAVHYCKAFTRTDDYWGQGTQVTVSS
notes: as for B1
B18: 2LEC 68 (VHH)
VHH: B16 VHH with G16E, R27S, S29F, S33A, N43K, N53D, R101G, D102N, I111V
notes: as for B1
B19: 3LEC 57 (VHH)
VHH: B16 VHH with N43K, T71R, N73G, S84N, R101T, D102Y, I111V
notes: as for B1
B20: 2LEC 38 (VHH)
VHH: B17 VHH with V28I, S30D, Q54G, A56Q, T73N, H93Y, T101S
notes: as for B1
B21: 3LEC 36 (VHH)
VHH: QVQLQESGGGLVQPGGSLRLSCAASGRIGSINSMGWYRQAPGKQREMVAAITNGGATVYADSVKGRFTISRDNAGNTVDLHMNSLRPEDSAVYYCKAFTRGDDYWGQGTQVTVSS
notes: as for B1
B22: 2LEC 6 (VHH)
VHH: QVQLQESGGGWVQPGGSLRLSCAATGSIVSINAIGWYRQAPGKQRELVASITNQGIRNYSTSVMGRFTISRDDVKNTVSLQMNSLKPEDSAVYYCKGFAGWGKEDYWGQGTQVTVSS
notes: as for B1
B23: 2LEC 54 (VHH)
VHH: QVQLQESGGGLAQPGGSLQLSCAASGRAFSTNSMGWYRQASGKQRELVAAITSQGRITLADSVKGRFTISSDNTKNTVFLQMNSLKPEDTAVYYCNAWTTLGTFGGQGTQVTVSS
notes: as for B1
B24: 3LEC 66 (VHH)
VHH: QVQLQESGGGLVQPGGSLRLSCAASRSFFSFNAMGWYRQAPGKQRELVAAITNGGRIAYGTSVMGRFTISRDNAKNTVYLQMDSLKPEDTAVYYCNAKPAPVYGSTVGDYWGQGTQVTVSS
notes: as for B1
B25: 2LEC 16 (VHH)
VHH: B24 VHH with A23L, F29S, Q44E, T61I, S62A, M64N, D83N, A100T
notes: as for B1
B26: 1LEC 28 (VHH)
VHH: QVQLQESGGGLVQSGGSLRLSCAASGSVFSINAWGWYRQAPGKQRELVAAITNQGRIAYAPSVNGRFTISRDSAKNTVYLQMNSLKPEDTAVYYCNAKPTPVYGSTVGDYWGQGTQVTVSS
notes: as for B1
B27: 2LEC 59 (VHH)
VHH: B24 VHH with A24V, S27N, F31I, N73D, Y79D, D83N, K86R, P99A, A100I, G108E
notes: as for B1
B28: 1LEC 88 (VHH)
VHH: QVQLQESGGGLVQPGGSLRLSCAAIGNIASITAMGWYRQAPGKQRELVAAITSASASRTTYADSVKGRFTISRDNAKNTVYLQMNSLQPEDTAVYYCKGFRSGADDYWGQGTQVTVSS
notes: as for B1
B29: 1LEC 9 (VHH)
VHH: QVQLQESGGGLVQAGGSLRLSCAASGSITSINAMGWYRQAPGKQRELVAAITSGGRLSYADSVKGRFTISRDNAESTVALQMNSLKPEDTAVYSCAAFQSSGIDWGQGTQVTVSS
notes: as for B1
B30: 2LEC 90 (VHH)
VHH: QVQLQESGGGLVQTGGSLRLSCAASGSIFSFNAMGWYRQAPGKQRELVAAITDGGRLTYADSAKGRFTISRENTRNTVHLQMSSLKAEDTADYYCTIWTRDRQQYWGQGTQVTVSS
notes: as for B1
B31: 2LEC 26 (VHH)
VHH: B30 VHH with Q13E, F31I, G54Q, T58A, T74A, V78L, D92V, T99D
notes: as for B1
B32: 3LEC 30 (VHH)
VHH: QVQLQESGGGLVQTGGSLRLSCAASGSIFSINSMGWYRQAPGKQRELVAAITSQGRSTYADSAKGRFTISLGNARNTVNLQMSSLKTEDTAVYYCTIWARDRQQYWGQGTQVTVSS
notes: as for B1
B33: 3LEC 55 (VHH)
VHH: B30 VHH with T14P, R19K, G65N, D92V, R100K
notes: as for B1
B34: 2LEC 55 (VHH)
VHH: QVQLQESGGGLVQTGESLSLSCAVASGSIISINSMGWYRQAPEKQRELVAAITVDGRLAYADSAKHRFTISKESARNTVHLHMSSLKPEDTAVYYCTIWVRDGQQYWGQGTQVTVSS
notes: as for B1

The binders below were run against T1, human Clec9A (human, UniProt Q6UXN8 1-241) (assay: flow cytometry on HEK293-T cells transfected with human Clec9A; His-tagged VHH at 2 µg/ml, anti-His FITC antibody; single concentration).
T1 construct: Expressed on transfected CHO-K1, HEK293-T and HL116 cells, or native on human dendritic cells; also called hClec9A; C-type lectin domain family 9 member A
T1 sequence (Q6UXN8 whole entry, the tested form may be a part): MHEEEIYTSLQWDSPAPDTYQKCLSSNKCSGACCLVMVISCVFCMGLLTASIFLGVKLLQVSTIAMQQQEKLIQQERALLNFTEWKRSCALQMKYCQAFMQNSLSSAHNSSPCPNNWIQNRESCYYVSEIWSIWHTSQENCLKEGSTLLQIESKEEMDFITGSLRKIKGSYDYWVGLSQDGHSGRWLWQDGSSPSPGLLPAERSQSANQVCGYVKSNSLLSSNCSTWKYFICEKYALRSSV
Method: The binding characteristics of various VHHs (as described in Example 1) were tested by flow cytometry. HEK293-T cells were transfected with a human Clec9A expression plasmid and stained with the His-tagged VHHs at 2 μg/ml, followed by staining with an anti-His Fitc conjugated antibody. Binding was measured by detecting cellular fluorescence via flow cytometry.

Binding result, binds:
B1
B2
B3
B4
B5
B6
B7
B8
B9
B10
B11
B12
B13
B14
B15
B16
B17
B18
B19
B20
B21
B22
B23
B24
B25
B26
B27
B28
B29
B30
B31
B32
B33
B34
